From patent publication US20240309110A1 (DANMARKS TEKNISKE UNIVERSITET, published 2024) come the findings set out here.

Changes are numbered by the printed parent chain. No end group written: not given here.

Assay [1] concerns the target MUC1 20-mer glycopeptide no. 29 of Table 5 (…, no Ala substitution) (GalNAc sites are shown in bold and underlined in Table 5; the marks are lost in the text). Description: glycopeptide microarray (20-mer MUC1 Tn-glycopeptides printed on a chip), RFU as heat map.
Assay [2] has as its target T1, MUC1 20-mer glycopeptide no. 24 of Table 5 (VTSAPDTRPAPGSAAPPAHG, Thr to Ala) (GalNAc sites are shown in bold and underlined in Table 5; the marks are lost in the text).
T1 peptide: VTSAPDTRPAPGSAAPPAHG
Put plainly: glycopeptide microarray.

Assay [3] concerns the target T2, PAPGSTAAPAH (S13 and T14 carry GalNAc (Tn), bold and underlined on the sheet).
T2 construct: also called MUC1 20-mer glycopeptide no
T2 peptide: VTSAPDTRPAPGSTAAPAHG
Put plainly: glycopeptide microarray (20-mer MUC1 Tn-glycopeptides printed on a chip), RFU as heat map.

For assay [4], the target named is T3, AHGVTSAPDTR (T13 and S14 carry GalNAc (Tn), bold and underlined on the sheet).
T3 construct: also called MUC1 20-mer glycopeptide no
T3 peptide: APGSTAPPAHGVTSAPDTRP
The description is as above.

Assay [5] has as its target T4, MUC1 peptide no 1 (bisTn-MUC1): Btn-Ahx-SAPDTRPAPGS*T*APPAHGVTSAPD-OH (N-terminal Btn-Ahx (biotin-aminohexyl); GalNAc (Tn) on the Ser and the Thr marked * in GS*T*AP).
T4 construct: Synthetic MUC1 glycopeptide; also called peptide 1; target peptide 1
T4 peptide: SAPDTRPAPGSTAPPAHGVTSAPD
Description: glycopeptide microarray, bar chart with single points [panel C7].

Assay [6] deals with T5, MUC1 peptide no 11 (bisSTnMUC1): GSTAP (not fully specified (residue 2)).
T5 construct: also called glycopeptide 11
T5 peptide: GST(Neu5Ac(a2-6)GalNAc)AP
Put plainly: glycopeptide microarray, signal as heat map.

Assay [7] concerns the target T6, MUC1 peptide no 12 (monoSTnMUC1): GSTAP.
T6 construct: also called glycopeptide 12
T6 peptide: GST(Neu5Ac(a2-6)GalNAc)AP
Put plainly: glycopeptide microarray, signal as heat map.

Assay [8] has as its target T4, MUC1 peptide no 1 (bisTn-MUC1): …. Put plainly: glycopeptide microarray.
For assay [9] the target is unchanged. Description: glycopeptide microarray, bar chart with single points [panel C4].
Assay [10] shares this target. Put plainly: glycopeptide microarray, bar chart with single points [panel D3].

MUC1 20-mer glycopeptide no. 29 of Table 5 (…, no Ala substitution) (GalNAc sites are shown in bold and underlined in Table 5; the marks are lost in the text), sequence (peptide, as listed by the source): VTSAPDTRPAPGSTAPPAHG

B1: scFv 2D9Chi (scFv, V domains shown)
VH: not shown
VL: DIVMSQSPSSLAVSVGEKVTMSCKSSQSLLYSSDQKNYLAWYQQKPGQSPKLLIYWASTRESGVPDRFTGSGSGTDFTLTISSVKAEDLAVYYCQQCYSYPFTFGSGTKLERKR
notes: 2D9Chi comprises the 2D9 VL domain and G2D11 VH domain
Regarding B1, the binding result in assay [1] is “no binding”.

B2: scFv 5E5 (scFv, V domains shown)
VH: QSDAELVKPGSSVKISCKASGYTFTDHAIHWVKQKPEQGLEWIGHFSPGNTDIKYNDKFKGKATLTVDRSSSTAYMQLNSLTSEDSAVYFCKTSTFFFDYWGQGTTLTVSS
VL: ELVMTQSPSSLTVTAGEKVTMICKSSQSLLNSGDQKNYLTWYQQKPGQPPKLLIFWASTRESGVPDRFTGSGSGDFTLTISSVQAEDLAVYYCQNDYSYPLTFGAGTKLELK
notes: Single chain Fv in the microarray; also called svFV 5E5
With B2, the binding result in [2], in [3] and in assay [4] was “no binding” throughout.

B3: scFv C7-STnMUC1 (scFv)
scFv: VVVTQTPLSLPVSLGDQASISCRSSQSLVHSNGNTYLHWYLQKPGQSPKLLIYKVSNRFSGVPDRFSGSGSGTDFTLKISRVEAEDLGVYFCSQSTHVPRTFGGGTKLEIKRGGGSGGGSGGGSGGGSGGGSQVQMQQSDAELVKPGASVKISCKASGYTFTDHAIHWVKRKPEQGLEWIGYISPGNDDIKYNEKFKGKATLTADKSSSTAYMQLNSLTSEDSAVYFCKRSLLALDYWGQGTTLTVSS
notes: From the STn-template library
For B3, the binding result in assay [5] is reported as “no binding”.

B4: scFv G2D11 mutant M1 (LAL) (scFv)
scFv: DVVMTQSHKFMSTSVGDRVSITCKASQDVGTAVAWYQQKPGQSPKLLIYWASTRHTGVPDRFTGSGSGTDFTLTISNVQSEDLADYFCQQYSSYPLTFGGGTKLEMKRGGGGSGGGGSGGGGSGGGGSQVQMQQSDAELVKPGASVKISCKASGYIFADHAIHWVKRKPEQGLEWIGYISPGNDDIKYNEKFKGKATLTADKSSSTAYMQLNSLTSEDSAVYFCKRSLLALDYWGQGTTLTVSS
notes: Mutant of scFv G2D11 with the mutations in the VH domain; '-' stands for the deletion of G102; also called LAL mutant M1
With B4, the binding result in assay [6], in assay [7] and in assay [8] was “no binding” in each case.

B5: scFv G2D11 mutant M2 (LAL-TFT) (scFv)
scFv: B4 scFv with I156T, A158T
notes: also called LAL+TFT mutant M2
On to B5, for which, in assay [8], the binding result was “no binding”.

B6: scFv C4-STnMUC1 (scFv)
scFv: IVMTQSPSSLAVSAGEKVTMSCKSSQSLLNSRTRKNYLAWYQQKPGQSPKLLIYWASTRHTGVPDRFTGSGSGTDFTLTISNVQSEDLAEYFCQQYNSYPYTFGGGTKLEIKRGGGSGGGSGGGSGGGSGGGSQVQMQQSDAELVKPGASVKISCKASGYTFTDHAIHWVKRKPEQGLEWIGYISPGNDDIKYNEKFKGKATLTADKSSSTAYMQLNSLTSEDSAVYFCKRSLLALDYWGQGTTLTVSS
notes: From the STn-template library
For B6, the binding result in [9] was “no binding”.

B7: scFv D3-STnMUC1 (scFv)
scFv: B6 scFv
notes: From the STn-template library
B7: the binding result in assay [10] is listed as “no binding”.

B8: scFv G2D11 mutant M4 (TFT-G) (scFv)
scFv: DVVMTQSHKFMSTSVGDRVSITCKASQDVGTAVAWYQQKPGQSPKLLIYWASTRHTGVPDRFTGSGSGTDFTLTISNVQSEDLADYFCQQYSSYPLTFGGGTKLEMKRGGGGSGGGGSGGGGSGGGGSQVQMQQSDAELVKPGASVKISCKASGYTFTDHAIHWVKRKPEQGLEWIGYISPGNGDIKYNEKFKGKATLTADKSSSTAYMQLNSLTSEDSAVYFCKRSLPGTFDYWGQGTTLTVSS
notes: The only mutant without LAL; also called TFT mutation only
In the case of B8, in assay [7], the binding result was “no binding”.
